Values of other authors, collected in article PMC4893024.

Biological target: Cys39 (UniProt position 39, TSPYECGFDPM)
Test: not stated (the cited study [29] is described as SH-reagent sensitivity/labelling of bovine heart SMP with N-ethylmaleimide and N-fluorescein maleimide)
Conditions: Deactive (D) form of complex I, with Cys-39 exposed

NADH-ubiquinone oxidoreductase chain 3 (ND3 subunit of mitochondrial complex I) (Bos taurus)
pKa: 10.2
